Test results taken from patent US20060269543A1 (Amgen, published 2006).
Values belong to the binder of their own block, whether it stands above or below them.

Target: T1, IFN-γ (human, UniProt P01579 24-166, limits assumed)
T1 sequence (looked up): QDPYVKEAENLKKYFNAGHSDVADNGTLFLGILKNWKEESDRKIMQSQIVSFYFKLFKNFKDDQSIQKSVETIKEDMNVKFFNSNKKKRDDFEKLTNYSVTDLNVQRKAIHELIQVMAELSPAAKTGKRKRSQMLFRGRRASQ
Assay: cell-based or functional assay

- IC50, A549 cell proliferation assay (ALAMARBLUE); sample stored 3 months at pH 5, 4° C.: 0.0023 µg/mL
- IC50, A549 cell proliferation assay (ALAMARBLUE); sample stored 3 months at pH 5, 37° C.: 0.0027 µg/mL
B1: full length human IgG1 antibody against human IFN-γ, filtered purified bulk (FPB) (antibody, V domains shown)
VH: EVQLVQSGAEVKKPGESLKISCKGSGYNFTSYWIGWVRQMPGKGLELMGIIYPGDSDTRYSPSFQGQVTISADKSISTAYLQWSSLKASDTAMYYCGSGSYFYFDLWGRGTLVTVSS
VL: EIVLTQSPGTLSLSPGERATLSCRASQSVSSSYLAWYQQKPGQAPRLLIYGASSRATGIPDRFSGSGSGTDFTLTISRLEPEDFAVYYCQRSGGSSFTFGPGTKVDIKR
modifications: N-glycan sites at amino acids 28 and 297 of SEQ ID NO:17 (VH and CH2); heterogeneously sialylated

- IC50, A549 cell proliferation assay (ALAMARBLUE); sample stored 3 months at pH 5, 4° C.: 0.0037 µg/mL
- IC50, A549 cell proliferation assay (ALAMARBLUE); sample stored 3 months at pH 5, 37° C.: 0.0038 µg/mL
B2: full length human IgG1 antibody against human IFN-γ, purified isoform Peak -2 (antibody, V domains shown)
VH: B1 VH
VL: B1 VL
modifications: N-glycan sites at amino acids 28 and 297 of SEQ ID NO:17 (VH and CH2); sialylation isoform Peak -2

- IC50, A549 cell proliferation assay (ALAMARBLUE); sample stored 3 months at pH 5, 4° C.: 0.0018 µg/mL
- IC50, A549 cell proliferation assay (ALAMARBLUE); sample stored 3 months at pH 5, 37° C.: 0.0028 µg/mL
B3: full length human IgG1 antibody against human IFN-γ, purified isoform Peak +1 (antibody, V domains shown)
VH: B1 VH
VL: B1 VL
modifications: N-glycan sites at amino acids 28 and 297 of SEQ ID NO:17 (VH and CH2); sialylation isoform Peak +1

- IC50, A549 cell proliferation assay (ALAMARBLUE); sample stored 3 months at pH 5, 4° C.: 0.003 µg/mL
- IC50, A549 cell proliferation assay (ALAMARBLUE); sample stored 3 months at pH 5, 37° C.: 0.0033 µg/mL
B4: full length human IgG1 antibody against human IFN-γ, purified isoform Peak -1 (antibody, V domains shown)
VH: B1 VH
VL: B1 VL
modifications: N-glycan sites at amino acids 28 and 297 of SEQ ID NO:17 (VH and CH2); sialylation isoform Peak -1

- IC50, A549 cell proliferation assay (ALAMARBLUE); sample stored 3 months at pH 5, 4° C.: 0.002 µg/mL
- IC50, A549 cell proliferation assay (ALAMARBLUE); sample stored 3 months at pH 5, 37° C.: 0.0032 µg/mL
B5: full length human IgG1 antibody against human IFN-γ, purified isoform Peak +2 (antibody, V domains shown)
VH: B1 VH
VL: B1 VL
modifications: N-glycan sites at amino acids 28 and 297 of SEQ ID NO:17 (VH and CH2); sialylation isoform Peak +2

- IC50, A549 cell proliferation assay (ALAMARBLUE); sample stored 3 months at pH 5, 4° C.: 0.0024 µg/mL
- IC50, A549 cell proliferation assay (ALAMARBLUE); sample stored 3 months at pH 5, 37° C.: 0.0033 µg/mL
B6: full length human IgG1 antibody against human IFN-γ, purified isoform Peak 0 (antibody, V domains shown)
VH: B1 VH
VL: B1 VL
modifications: N-glycan sites at amino acids 28 and 297 of SEQ ID NO:17 (VH and CH2); sialylation isoform Peak 0
